We go through 50 sequences from the supplement of paper PMC9112550, “Optimization of the antimicrobial peptide Bac7 by deep mutational scanning” (BMC Biology, 2022).
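Note: peptides expressed intracellularly from a pBAD plasmid library in pooled LB shake-flask culture, induced with 0.3% L-arabinose, DNA abundance read by NGS, three biological replicates, DESeq2 with apeglm shrinkage.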

The data set concerns Escherichia coli TOP10. Briefly: shrunken log2 fold change of peptide-encoding DNA abundance (4.5 h post-induction vs induction); higher = less antimicrobial activity (less host growth inhibition). Conditions: time post-induction: 4.5 h; library: site-saturation at positions 5, 18, 19, 20.
Take RRIRYRPPRLPRPRPRPFENPRP: the “shrunken log2 fold change” value was -0.257.
In the case of RRIRTRPPRLPRPRPRPTVCPRP, the “shrunken log2 fold change” value was -0.509.
For RRIRNRPPRLPRPRPRPTWRPRP, the “shrunken log2 fold change” value was 0.421.
Under RRIRGRPPRLPRPRPRPDPSPRP stands 0.414; under RRIRPRPPRLPRPRPRPHSQPRP, -0.134.
As for RRIRARPPRLPRPRPRPGCAPRP, the “shrunken log2 fold change” value came out at 0.947.
In the case of RRIRKRPPRLPRPRPRPPTGPRP, the “shrunken log2 fold change” value amounted to 0.265.
Turning to RRIRIRPPRLPRPRPRPTHEPRP, the “shrunken log2 fold change” value is -0.0459.
As to RRIRNRPPRLPRPRPRPLWMPRP, the “shrunken log2 fold change” value was -0.587.
Regarding RRIRGRPPRLPRPRPRPMSAPRP, the “shrunken log2 fold change” value is 0.702.
For the sequence RRIRQRPPRLPRPRPRPIPWPRP, the “shrunken log2 fold change” value was determined as 0.0351.
Under RRIRVRPPRLPRPRPRPQINPRP stands -0.0064.
For the sequence RRIRLRPPRLPRPRPRPQFVPRP, the “shrunken log2 fold change” value is -0.0035.
On to RRIRWRPPRLPRPRPRPAPTPRP, for which the “shrunken log2 fold change” value turned out to be 0.695.
For RRIRNRPPRLPRPRPRPLAMPRP, the “shrunken log2 fold change” value was -0.21.
RRIRGRPPRLPRPRPRPDMGPRP: the “shrunken log2 fold change” value was 0.269.
Under RRIRMRPPRLPRPRPRPCLEPRP stands 0.126; under RRIRIRPPRLPRPRPRPVWGPRP, 0.0298.
On to RRIRDRPPRLPRPRPRPMSDPRP, for which the “shrunken log2 fold change” value was found to be 1.13.
For RRIRMRPPRLPRPRPRPQTHPRP, the “shrunken log2 fold change” value stood at 0.318.
For RRIRPRPPRLPRPRPRPNDQPRP, the “shrunken log2 fold change” value stood at 1.93.
With RRIRWRPPRLPRPRPRPCKLPRP, the “shrunken log2 fold change” value was -0.694.
As for RRIRMRPPRLPRPRPRPDAKPRP, the “shrunken log2 fold change” value is 0.937.
On to RRIRPRPPRLPRPRPRPFLVPRP, for which the “shrunken log2 fold change” value was -0.0765.
Under RRIRDRPPRLPRPRPRPAFMPRP stands 0.699.
On to RRIRARPPRLPRPRPRPVSQPRP, for which the “shrunken log2 fold change” value is 0.385.
In the case of RRIRRRPPRLPRPRPRPNKTPRP, the “shrunken log2 fold change” value was -0.00203.
Turning to RRIRRRPPRLPRPRPRPKAHPRP, the “shrunken log2 fold change” value worked out at 0.515.
Regarding RRIRERPPRLPRPRPRPLGKPRP, the “shrunken log2 fold change” value is 0.189.
Under RRIRNRPPRLPRPRPRPGPCPRP stands -0.0814; under RRIRMRPPRLPRPRPRPWKEPRP, 0.0155; under RRIRQRPPRLPRPRPRPSKIPRP, -0.143.
With RRIRCRPPRLPRPRPRPIQKPRP, the “shrunken log2 fold change” value is -0.127.
Regarding RRIRIRPPRLPRPRPRPLSFPRP, the “shrunken log2 fold change” value was -0.687.
Turning to RRIRIRPPRLPRPRPRPYSHPRP, the “shrunken log2 fold change” value is -0.941.
Under RRIRARPPRLPRPRPRPYEWPRP stands -0.0646; under RRIRMRPPRLPRPRPRPHATPRP, 2.78.
Regarding RRIRERPPRLPRPRPRPERIPRP, the “shrunken log2 fold change” value is -0.0271.
Turning to RRIRGRPPRLPRPRPRPHYQPRP, the “shrunken log2 fold change” value is -0.15.
As to RRIRSRPPRLPRPRPRPNRFPRP, the “shrunken log2 fold change” value was -0.0804.
Take RRIRERPPRLPRPRPRPEKFPRP: the “shrunken log2 fold change” value was -0.287.
Turning to RRIRYRPPRLPRPRPRPLNCPRP, the “shrunken log2 fold change” value was -0.295.
As to RRIRTRPPRLPRPRPRPAGPPRP, the “shrunken log2 fold change” value is -0.257.
Turning to RRIRGRPPRLPRPRPRPDKHPRP, the “shrunken log2 fold change” value is 0.0564.
Under RRIRYRPPRLPRPRPRPIWHPRP stands -1.23; under RRIRYRPPRLPRPRPRPFFDPRP, 1.09.
In the case of RRIRGRPPRLPRPRPRPHKPPRP, the “shrunken log2 fold change” value was found to be 0.388.
Turning to RRIRPRPPRLPRPRPRPQAIPRP, the “shrunken log2 fold change” value is 0.186.
For RRIRSRPPRLPRPRPRPERCPRP, the “shrunken log2 fold change” value is 0.0123.
For RRIRVRPPRLPRPRPRPDIEPRP, the “shrunken log2 fold change” value was -0.0848.
